Measurements: patent publication US20170157251A1, “Bi-Specific Monovalent Diabodies That are Capable of Binding CD19 and CD3, and Uses Thereof” (MacroGenics, Inc., priority 2015, published 2017)

Tests used:
[1] = system: cynomolgus monkey blood leukocytes; experiment: Flow cytometry binding to cynomolgus monkey blood leukocytes (B and T cells); settings: 0.005 to 80 nM
Description: (§1) Following incubation, binding to leukocytes was detected using a biotinylated anti-E-coil/K-coil (EK) mAb, which recognizes the EK coil heterodimerization region of the DART proteins and streptavidin-PE. […] Similarly, CD20 was used as a B cell marker instead of CD19. Therefore, in this study, the CD4+ and CD8+ gated events represent the T cell population and CD20+ gated events represent the B cell population.

human blood leukocytes = experiment: Flow cytometry binding to human blood leukocytes (B and T cells); settings: 0.005 to 80 nM
Description: as §1

B1: Control DART 2: control DART capable of binding to fluorescein and CD19 (protein)
chain 1: ENVLTQSPATLSVTPGEKATITCRASQSVSYMHWYQQKPGQAPRLLIYDASNRASGVPSRFSGSGSGTDHTLTISSLEAEDAATYYCFQGSVYPFTFGQGTKLEIKGGGSGGGGEVKLDETGGGLVQPGRPMKLSCVASGFTFSDYWMNWVRQSPEKGLEWVAQIRNKPYNYETYYSDSVKGRFTISRDDSKSSVYLQMNNLRVEDMGIYYCTGSYYGMDYWGQGTSVTVSSASTKGEVAACEKEVAALEKEVAALEKEVAALEKGGGDKTHTCPPCPAPEAAGGPSVFLFPPKPKDTLMISRTPEVTCVVVDVSHEDPEVKFNWYVDGVEVHNAKTKPREEQYNSTYRVVSVLTVLHQDWLNGKEYKCKVSNKALPAPIEKTISKAKGQPREPQVYTLPPSREEMTKNQVSLWCLVKGFYPSDIAVEWESNGQPENNYKTTPPVLDSDGSFFLYSKLTVDKSRWQQGNVFSCSVMHEALHNHYTQKSLSLSPGK
chain 2: QAVVTQEPSLTVSPGGTVTLTCRSSTGAVTTSNYANWVQQKPGQAPRGLIGGTNKRAPWTPARFSGSLLGGKAALTITGAQAEDEADYYCALWYSNLWVFGGGTKLTVLGGGGSGGGGEVKLDETGGGLVQPGRPMKLSCVASGFTFSDYWMNWVRQSPEKGLEWVAQIRNKPYNYETYYSDSVKGRFTISRDDSKSSVYLQMNNLRVEDMGIYYCTGSYYGMDYWGQGTSVTVSSASTKGKVAACKEKVAALKEKVAALKEKVAALKE
modifications: Amino Acid Sequence of the First Polypeptide Chain of Control DART 2; Amino Acid Sequence of the Second Polypeptide Chain of Control DART 2
[1]
  binding to B cells (CD20+) and T cells (CD4+ and CD8+): only mono-specific binding to B cells
Human blood leukocytes
  binding to B cells (CD20+) and T cells (CD4+ and CD8+): only mono-specific binding to B cells
